Test results as given in US20050014206A1, “Method of identifying compounds that specifically inhibit the anaphase promoting complex” (Boehringer Ingelhiem International GmbH, priority 2003, published 2005).
“Also recorded” adds a separate entry of the source.

How the values were obtained:
APC activation by CDH1 = molecular target: T1, APC activation by CDH1 (Homo sapiens, UniProt P30260+Q9UJX3); experiment: In vitro ubiquitination assay with [125I]-labelled cyclin B as substrate; format: biochemical; settings: APC loaded with recombinant CDH1 in presence of peptide at 1 mg/ml, cyclin B fragment substrate
T1 construct: endogenous in cells; host or cells: APC immunopurified from HeLa cell extracts; CDH1 and cyclin B fragment recombinant
Method: (§1) Immunopurified holo-APC or subcomplexes were washed and incubated with purified recombinant CDH1 (0.5-1.0 μg per 10 μl bead volume) in TBS/T, or with insect cell lysates in TBS/T containing recombinant CDH1 proteins as indicated. Peptides for competition were used at 1 mg/ml, with the addition of 0.5 mM DTT to the buffer. Subsequently, bead-bound complexes were washed 3× with TBS/T and immunoblotted for binding of CDH1 or used in ubiquitination assays. In vitro ubiquitination reactions were performed as described (Kramer, E. R., et al., Curr Biol 8:1207-10 (1998)). Securin-myc-his substrate was detected by immunoblotting with monoclonal anti-Myc 9E10 antibodies. Alternatively, an iodinated N-terminal recombinant fragment of sea urchin cyclin B (amino acids 13-110) was used and visualized by autoradiography (Gieffers, C., et al., Mol Cell 7:907-13 (2001)).
(§2) What are the mechanistic consequences of the observed interactions between IR tail peptides and APC subunits? To address this, it was tested if the peptides would influence APC activity in in vitro ubiquitination assays. Immunopurified APC was loaded with recombinant CDH1 in the presence or absence of IR-tail or control peptides, washed, and used to ubiquitinate a radioactively labeled fragment of cyclin B (FIG. 6B). […] In contrast, an N-terminal CDC20 peptide had no effect on APC activation.

APC8 = molecular target: T2, APC8 (Homo sapiens, UniProt Q9UJX2); experiment: Peptide binding assay (matrix-coupled peptides), APC8; settings: insect cell lysates; western blot
T2 construct: HisHA; made in house; host or cells: Sf9 or Hi5 insect cells (baculovirus), used as lysate
T2 sequence (Q9UJX2 whole entry): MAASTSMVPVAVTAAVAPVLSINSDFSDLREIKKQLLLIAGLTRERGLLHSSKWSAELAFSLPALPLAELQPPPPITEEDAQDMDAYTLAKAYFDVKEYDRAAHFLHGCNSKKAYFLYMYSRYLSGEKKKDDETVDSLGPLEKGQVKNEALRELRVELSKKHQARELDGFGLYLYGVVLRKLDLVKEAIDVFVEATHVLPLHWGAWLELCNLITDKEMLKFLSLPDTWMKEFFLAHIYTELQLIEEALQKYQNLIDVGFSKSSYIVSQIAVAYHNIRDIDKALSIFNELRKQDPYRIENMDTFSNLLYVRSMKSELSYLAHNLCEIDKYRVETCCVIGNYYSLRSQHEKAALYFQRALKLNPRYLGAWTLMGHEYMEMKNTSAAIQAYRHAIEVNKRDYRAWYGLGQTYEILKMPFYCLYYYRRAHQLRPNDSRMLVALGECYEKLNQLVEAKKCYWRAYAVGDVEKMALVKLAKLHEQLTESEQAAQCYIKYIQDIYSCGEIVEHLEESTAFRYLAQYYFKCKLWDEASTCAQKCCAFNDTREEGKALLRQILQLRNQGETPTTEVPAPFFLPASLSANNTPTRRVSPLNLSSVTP
Method: (§3) Synthetic peptides used in binding and inhibition assays were […] (CDC20 C-terminus; SEQ ID NO:2), […] (CDH1 C-terminus; SEQ ID NO:1), […] (CDC20 N-terminus; SEQ ID NO:10), and CAVWSLSSCKPGFGVD (control; SEQ ID NO:11).
(§4) Peptide interaction assays were carried out as described in Wendt, K. S., et al., Nat Struct Biol 8:784-8 (2001). Synthetic peptides (see above) were immobilized via N-terminal cysteine residues onto maleinimide-activated POROS matrix ([…]) in 0.1 M HEPES, pH 7.9 for 3 hours. After washing with slightly acidic buffers, 100 μg of the resulting matrix were incubated with insect cell lysates containing recombinant APC subunits, or with fractions from anion chromatography, in total volumes of […] of TBS/T pH 7.5. After stringent washing in TBS/T 0.5 M NaCl, samples were analyzed by SDS-PAGE and immunoblotted with 12CA5 anti-HA antibodies or antibodies against APC subunits.
(§5) To test if APC3 would also interact with the C-termini of CDH1 and its related activator CDC20, insect cell lysates containing recombinantly expressed APC3 were incubated with synthetic peptides coupled to a matrix through their N-terminus. After washing, peptide-bound material was analyzed by western blot. […] In budding yeast, which lacks APC7, they share Cdc27p as their closest homologue.

APC5 = molecular target: T3, APC5 (Homo sapiens, UniProt Q9UJX4); experiment: Peptide binding assay (matrix-coupled peptides), APC5; settings: insect cell lysates; western blot
T3 construct: HisHA; made in house; host or cells: Sf9 or Hi5 insect cells (baculovirus), used as lysate
T3 sequence (Q9UJX4 whole entry): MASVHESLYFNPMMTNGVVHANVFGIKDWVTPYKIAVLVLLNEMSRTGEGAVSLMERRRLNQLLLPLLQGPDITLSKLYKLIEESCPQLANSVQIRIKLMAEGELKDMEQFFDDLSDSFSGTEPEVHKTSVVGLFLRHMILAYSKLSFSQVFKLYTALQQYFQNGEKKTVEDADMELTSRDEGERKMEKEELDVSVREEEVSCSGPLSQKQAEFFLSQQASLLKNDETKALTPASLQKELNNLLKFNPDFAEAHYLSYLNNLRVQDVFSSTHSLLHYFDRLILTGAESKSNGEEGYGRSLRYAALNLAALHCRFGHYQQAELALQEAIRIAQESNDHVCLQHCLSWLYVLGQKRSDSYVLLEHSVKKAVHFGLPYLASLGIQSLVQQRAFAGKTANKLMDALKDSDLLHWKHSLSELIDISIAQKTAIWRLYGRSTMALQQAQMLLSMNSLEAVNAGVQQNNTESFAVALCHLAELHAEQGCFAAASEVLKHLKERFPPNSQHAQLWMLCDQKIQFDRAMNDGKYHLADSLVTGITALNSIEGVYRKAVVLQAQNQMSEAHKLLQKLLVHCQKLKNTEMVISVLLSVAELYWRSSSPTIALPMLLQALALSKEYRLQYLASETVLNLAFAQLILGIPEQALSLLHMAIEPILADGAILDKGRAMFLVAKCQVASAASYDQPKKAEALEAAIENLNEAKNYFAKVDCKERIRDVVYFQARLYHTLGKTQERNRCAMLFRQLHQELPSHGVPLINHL
Method: as §3, §4, §5

APC3 = molecular target: T4, APC3 (Homo sapiens, UniProt P30260); experiment: Peptide binding assay (matrix-coupled peptides), APC3
T4 construct: HisHA; made in house; host or cells: Sf9 or Hi5 insect cells (baculovirus), used as lysate
T4 sequence (P30260 whole entry): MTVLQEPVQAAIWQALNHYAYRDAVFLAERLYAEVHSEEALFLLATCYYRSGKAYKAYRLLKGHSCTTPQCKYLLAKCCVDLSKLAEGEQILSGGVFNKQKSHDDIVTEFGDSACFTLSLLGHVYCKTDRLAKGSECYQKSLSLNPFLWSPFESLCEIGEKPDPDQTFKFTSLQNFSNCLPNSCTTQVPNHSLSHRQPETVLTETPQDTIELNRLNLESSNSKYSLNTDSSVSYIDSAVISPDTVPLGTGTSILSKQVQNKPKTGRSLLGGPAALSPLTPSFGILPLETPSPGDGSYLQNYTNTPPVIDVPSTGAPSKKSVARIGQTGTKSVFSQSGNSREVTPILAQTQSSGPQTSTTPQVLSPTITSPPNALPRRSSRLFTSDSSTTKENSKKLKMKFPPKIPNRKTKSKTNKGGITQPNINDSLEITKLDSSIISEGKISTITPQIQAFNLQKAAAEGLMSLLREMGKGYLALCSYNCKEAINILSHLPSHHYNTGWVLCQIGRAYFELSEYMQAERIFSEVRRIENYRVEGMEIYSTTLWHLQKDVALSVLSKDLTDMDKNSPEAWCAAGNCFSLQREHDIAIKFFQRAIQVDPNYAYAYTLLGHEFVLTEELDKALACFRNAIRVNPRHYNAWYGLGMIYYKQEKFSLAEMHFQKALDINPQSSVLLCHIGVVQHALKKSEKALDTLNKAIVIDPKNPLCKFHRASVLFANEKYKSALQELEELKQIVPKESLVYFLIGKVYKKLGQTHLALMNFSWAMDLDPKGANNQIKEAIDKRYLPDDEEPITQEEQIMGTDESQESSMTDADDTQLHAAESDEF
Method: as §3, §4, §5
(§6) In order to exclude any non-specific effects caused by incorrect folding of recombinantly expressed proteins, an alternative source of APC subunits was used in the peptide binding assays. As described above, late-eluting fractions from the ReSource Q column contained considerable amounts of the TPR subunits APC3, APC6, and APC7, while other subunits were found in lower abundance (FIG. 10).

holo-APC = molecular target: T5, holo-APC (Homo sapiens, UniProt P30260+Q9UJX3); experiment: Peptide binding assay with holo-APC containing fractions; settings: APC-containing anion exchange fractions
T5 construct: endogenous in cells; host or cells: HeLa cells, Source15Q fractions eluting around 450 mM KCl
Method: as §3
Pellets from 5×10^9 logarithmically grown HeLa cells (4C, Belgium) were lysed in 20 mM TrisCl pH7.7, 150 mM KCl, 0.5 mM DTT, 0.1% Tween-20, Protease Inhibitor mix (Sigma) using a french press and cleared by 100,000×g centrifugation for 1 h. After filtration through a 0.45 μm filter, extracts were loaded onto a 60 ml Source15Q anion exchange column (Amersham) at 4 ml/min. The column was washed with 20 mM Tris-Cl pH7.7, 150 mM KCl, 0.5 mM DTT until a drop in A280 indicated the end of the flowthrough. Elution was carried out with a gradient from 150 mM to 600 mM KCl. […]
Peptide interaction assays were carried out as described in Wendt, K. S., et al., Nat Struct Biol 8:784-8 (2001). […] After stringent washing in TBS/T 0.5 M NaCl, samples were analyzed by SDS-PAGE and immunoblotted with 12CA5 anti-HA antibodies or antibodies against APC subunits.
It was tested if CDH1's C-terminus would be sufficient to interact with holo-APC. For this, APC-containing fractions were incubated with the peptide matrix and analyzed for binding of APC by detection of all subunits. […]

CDC26 = molecular target: T6, CDC26 (Homo sapiens, UniProt Q8NHZ8); experiment: Peptide binding assay (matrix-coupled peptides), CDC26; settings: late-eluting Q column fractions from HeLa extracts; listed as CDH1 peptide
T6 construct: endogenous in cells; host or cells: HeLa cells, late-eluting Source15Q fractions
T6 sequence (Q8NHZ8 whole entry): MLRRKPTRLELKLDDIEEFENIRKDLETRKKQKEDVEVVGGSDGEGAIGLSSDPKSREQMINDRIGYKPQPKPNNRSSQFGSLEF
Method: as §3, §4, §6

APC7 = molecular target: T7, APC7 (Homo sapiens, UniProt Q9UJX3); experiment: Peptide binding assay (matrix-coupled peptides), APC7 and APC7 fragments; settings: for binding of recombinant APC7 to matrix-coupled peptide: recombinant APC7 in insect cell lysates, western blot
T7 construct: HisHA; made in house; host or cells: Sf9 or Hi5 insect cells (baculovirus), used as lysate
T7 sequence (Q9UJX3 whole entry, the tested form may be a part): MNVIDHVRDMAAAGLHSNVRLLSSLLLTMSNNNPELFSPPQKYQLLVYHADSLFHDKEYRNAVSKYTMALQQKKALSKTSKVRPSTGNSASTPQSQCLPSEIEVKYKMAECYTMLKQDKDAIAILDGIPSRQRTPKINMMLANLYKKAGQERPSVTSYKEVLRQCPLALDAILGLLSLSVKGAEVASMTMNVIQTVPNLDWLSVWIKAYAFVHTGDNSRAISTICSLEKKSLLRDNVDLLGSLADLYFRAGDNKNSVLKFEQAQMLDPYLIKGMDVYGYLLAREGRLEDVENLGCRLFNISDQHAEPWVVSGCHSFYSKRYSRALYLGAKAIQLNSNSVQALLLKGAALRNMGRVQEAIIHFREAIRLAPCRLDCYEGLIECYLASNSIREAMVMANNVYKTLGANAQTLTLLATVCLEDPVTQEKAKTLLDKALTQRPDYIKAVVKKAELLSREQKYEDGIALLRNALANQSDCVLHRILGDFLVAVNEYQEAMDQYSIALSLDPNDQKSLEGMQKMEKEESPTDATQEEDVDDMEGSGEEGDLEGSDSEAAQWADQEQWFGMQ
Method: as §3, §4, §5, §6
Lastly, the region in APC7 responsible for binding to IR peptides was mapped.

[1] = molecular target: T8, binding of recombinant CDH1 to APC (Homo sapiens, UniProt P30260+Q9UJX3); experiment: CDH1 binding assay with competing peptides; settings: peptides at 1 mg/ml; for effect of peptide on CDH1 binding to APC: quantitative immunoblotting with radiolabeled antibodies
T8 construct: endogenous in cells; host or cells: APC immunopurified from HeLa cell extracts; CDH1 recombinant, made in house
Method: as §1, §2

APC6 = molecular target: T9, APC6 (Homo sapiens, UniProt Q13042); experiment: Peptide binding assay (matrix-coupled peptides), APC6; settings: for binding of recombinant APC6 to matrix-coupled peptide: insect cell lysates, western blot
T9 construct: HisHA; made in house; host or cells: Sf9 or Hi5 insect cells (baculovirus), used as lysate
T9 sequence (Q13042 whole entry): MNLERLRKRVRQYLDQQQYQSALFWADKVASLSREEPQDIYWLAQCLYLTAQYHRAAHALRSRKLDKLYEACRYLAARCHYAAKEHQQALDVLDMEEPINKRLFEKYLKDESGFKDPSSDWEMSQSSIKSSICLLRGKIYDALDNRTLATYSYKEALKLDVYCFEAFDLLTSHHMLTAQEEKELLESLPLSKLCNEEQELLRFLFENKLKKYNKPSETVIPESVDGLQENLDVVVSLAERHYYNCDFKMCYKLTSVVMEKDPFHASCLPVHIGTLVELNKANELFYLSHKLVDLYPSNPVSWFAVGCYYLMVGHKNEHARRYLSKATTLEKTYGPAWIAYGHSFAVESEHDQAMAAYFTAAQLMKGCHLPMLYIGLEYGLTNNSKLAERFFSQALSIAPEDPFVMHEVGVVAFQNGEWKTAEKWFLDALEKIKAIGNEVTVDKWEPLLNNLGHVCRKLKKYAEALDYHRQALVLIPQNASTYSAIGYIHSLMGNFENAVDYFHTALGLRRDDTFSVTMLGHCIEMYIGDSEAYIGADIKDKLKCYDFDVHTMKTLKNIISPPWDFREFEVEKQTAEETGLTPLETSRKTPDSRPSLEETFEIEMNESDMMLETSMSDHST
Method: as §3, §4, §5, §6

[2] = molecular target: T10, recombinant HisHA-tagged APC8 (UniProt Q9UJX2 1-597); experiment: matrix-coupled peptide pull-down from insect cell lysate, western blot
T10 construct: Expressed with baculovirus in insect cells; used as lysate; also called APC8/CDC23; not shown: HisHA tag
T10 sequence (Q9UJX2 whole entry): as the sequence (Q9UJX2 whole entry) above
Method: as §4
(§7) To test if APC3 would also interact with the C-termini of CDH1 and its related activator CDC20, insect cell lysates containing recombinantly expressed APC3 were incubated with synthetic peptides coupled to a matrix through their N-terminus. After washing, peptide-bound material was analyzed by western blot. […] APC7, on the other hand, interacted strongly with the CDH1 C-terminus and moderately with CDC20's C-terminus (FIG. 5A), in a manner very similar to APC3. […] In budding yeast, which lacks APC7, they share Cdc27p as their closest homologue.

[3] = molecular target: T11, recombinant HisHA-tagged APC5 (UniProt Q9UJX4 1-755); experiment: as above
T11 construct: Expressed with baculovirus in insect cells; used as lysate; not shown: HisHA tag
T11 sequence (Q9UJX4 whole entry): as the sequence (Q9UJX4 whole entry) above
Method: as §4, §7

[4] = molecular target: native CDC26 from late-eluting anion exchange fractions of HeLa extract (human, UniProt Q8NHZ8 1-85); experiment: matrix-coupled peptide pull-down from late-eluting Q column fractions, western blot
native CDC26 from late-eluting anion exchange fractions of HeLa extract, sequence (Q8NHZ8 whole entry): as the sequence (Q8NHZ8 whole entry) above
Method: as §4, §6

[5] = late-eluting Q column fractions from HeLa extracts
[6] = recombinant APC3 in insect cell lysates, western blot
[7] = listed as C-terminal CDH1 peptide
[8] = listed as C-terminal peptide of CDH1
[9] = listed as C-terminal CDC20 peptide

## CESDLHSLLQLDAPIPNAPPARW (listed as Homo sapiens) [N-terminal CDC20 peptide, synthetic peptide of the CDC20 N-terminus used as control, reference compound]
APC activation by CDH1
  effect of peptide on APC activation (ubiquitination activity): no effect

## CFSKTRSTKESVSVLNLFTRIR (listed as Homo sapiens) [CDH1 C-terminal peptide, IR peptide; authentic human CDH1 C-terminus]
APC8
  binding of recombinant APC8 to matrix-coupled peptide: did not bind
APC5
  binding of recombinant APC5 to matrix-coupled peptide: interacted with neither
APC3; [5]
  binding of native APC3 to peptide matrix: significantly retained
APC3; [6]
  binding of recombinant APC3 to matrix-coupled peptide: even stronger binding
holo-APC
  binding of holo-APC (all known subunits) to peptide matrix: strongly enriched
CDC26
  binding of CDC26 to peptide matrix: no binding at all; also recorded: did not bind
APC7; [5]
  binding of native APC7 to peptide matrix: significantly retained
APC7
  binding of recombinant APC7 to matrix-coupled peptide: interacted strongly
[1]; comparison of the two C-terminal peptides
  inhibitory effect compared with the CDC20 C-terminal peptide: stronger effect
[1]; [7]
  effect of peptide on CDH1 binding to APC: inhibit
[1]; [8]
  effect of peptide on CDH1 binding to APC: diminished binding of CDH1
APC6
  binding of recombinant APC6 to matrix-coupled peptide: bound only in low amounts
APC6; late-eluting Q column fractions from HeLa extracts, listed as CDH1 peptide
  binding of native APC6 to peptide matrix: did not bind
APC activation by CDH1; [7]
  effect of peptide on APC activation (ubiquitination activity): inhibit
APC activation by CDH1; [8]
  effect of peptide on APC activation (ubiquitination activity): blocked APC activation efficiently

## CAVWSLSSCKPGFGVD (Control peptide) [reference compound]
APC3; [6]
  binding of recombinant APC3 to matrix-coupled peptide: did not bind
holo-APC
  binding of holo-APC (all known subunits) to peptide matrix: not
APC6
  binding of recombinant APC6 to matrix-coupled peptide: low amounts

## CLRREREKASTSKSSLIHQGIR (listed as Homo sapiens) [C-terminal peptide of CDC20, IR peptide; authentic human CDC20 C-terminus]
APC8
  binding of recombinant APC8 to matrix-coupled peptide: did not bind
APC5
  binding of recombinant APC5 to matrix-coupled peptide: interacted with neither
APC3; recombinant APC3 in insect cell lysates, western blot, % of input
  input APC3 bound to matrix-coupled peptide: about 10%
APC7
  binding of recombinant APC7 to matrix-coupled peptide: moderately
[1]
  effect of peptide on CDH1 binding to APC: diminished binding of CDH1
[1]; [9]
  effect of peptide on CDH1 binding to APC: inhibit
APC6
  binding of recombinant APC6 to matrix-coupled peptide: bound only in low amounts
APC activation by CDH1
  effect of peptide on APC activation (ubiquitination activity): blocked APC activation efficiently
APC activation by CDH1; [9]
  effect of peptide on APC activation (ubiquitination activity): inhibit

B1: CDC20 C-terminal peptide CLRREREKASTSKSSLIHQGIR (peptide)
peptide: CLRREREKASTSKSSLIHQGIR
modifications: in the peptide binding assays immobilized via the N-terminal cysteine onto maleinimide-activated POROS matrix; free peptide in the competition assays
notes: Synthetic peptide; also called CDC20 C-terminus; CDC20 peptide
[2]
  binding result: no binding
[3]
  binding result: no binding

B2: CDH1 C-terminal peptide CFSKTRSTKESVSVLNLFTRIR (peptide)
peptide: CFSKTRSTKESVSVLNLFTRIR
modifications: in the peptide binding assays immobilized via the N-terminal cysteine onto maleinimide-activated POROS matrix; free peptide in the competition assays
notes: Synthetic peptide; also called CDH1 C-terminus; CDH1 peptide
[4]
  binding result: no binding
[2]
  binding result: no binding
[3]
  binding result: no binding
